From paper PMC4738012 (Journal of molecular biology, 2015)

What was measured:
Test in all cases: flow cytometry on cells
[1] = target: PIGQ peptide … on HLA-A*02:01 of peptide-pulsed T2 cells (Homo sapiens, HLA-A*02:01 (T2 cells))
[2] = target: RMF peptide on HLA-A*02 of peptide-pulsed T2 cells (Homo sapiens, HLA-A*02:01, strain)
[3] = target: MED13L peptide … on HLA-A*02:01 of peptide-pulsed T2 cells (Homo sapiens, HLA-A*02:01 (T2 cells))

Measured: binding result

B1: ESK1 full-length human IgG1 antibody (antibody, V domains shown)
VH: QMQLVQSGAEVKEPGESLRISCKGSGYSFTNFWISWVRQMPGKGLEWMGRVDPGYSYSTYSPSFQGHVTISADKSTSTAYLQWNSLKASDTAMYYCARVQYSGYYDWFDPWGQGTLVTVSS
VL: not shown
binds: all assays above
